Experimental data as given in US20190376046.

Key:
[1] = target: T1, Phosphoglycerate kinase 1 (encoded by PGK1) (UniProt P00558)
T1 sequence: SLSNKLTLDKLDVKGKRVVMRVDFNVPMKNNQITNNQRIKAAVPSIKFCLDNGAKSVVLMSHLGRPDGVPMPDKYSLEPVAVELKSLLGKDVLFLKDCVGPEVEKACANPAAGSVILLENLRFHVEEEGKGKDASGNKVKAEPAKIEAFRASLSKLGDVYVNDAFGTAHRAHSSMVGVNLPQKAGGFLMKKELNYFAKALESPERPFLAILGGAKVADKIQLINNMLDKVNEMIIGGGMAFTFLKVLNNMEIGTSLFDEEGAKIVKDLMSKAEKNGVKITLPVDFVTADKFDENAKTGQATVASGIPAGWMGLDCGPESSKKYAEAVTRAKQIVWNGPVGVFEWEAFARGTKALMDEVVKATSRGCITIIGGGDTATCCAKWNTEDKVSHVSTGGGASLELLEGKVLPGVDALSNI

[2] = target: Alpha-enolase (encoded by ENO1) (UniProt P06733)
Sequence of Alpha-enolase (encoded by ENO1) (P06733 2-434): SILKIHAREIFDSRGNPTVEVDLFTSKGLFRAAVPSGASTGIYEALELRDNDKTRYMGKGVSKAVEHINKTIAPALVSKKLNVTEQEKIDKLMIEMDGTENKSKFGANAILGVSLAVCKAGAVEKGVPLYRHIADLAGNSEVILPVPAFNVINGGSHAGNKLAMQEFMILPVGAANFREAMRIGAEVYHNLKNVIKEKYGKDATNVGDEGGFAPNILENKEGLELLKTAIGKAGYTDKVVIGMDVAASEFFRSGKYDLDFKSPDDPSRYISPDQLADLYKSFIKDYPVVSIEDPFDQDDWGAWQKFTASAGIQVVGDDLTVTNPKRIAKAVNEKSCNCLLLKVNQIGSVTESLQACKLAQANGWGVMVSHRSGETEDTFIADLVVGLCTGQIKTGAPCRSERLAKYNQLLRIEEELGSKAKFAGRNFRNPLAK

[3] = target: T2, Fructose-bisphosphate aldolase A (encoded by ALDOA) (UniProt P04075)
T2 sequence: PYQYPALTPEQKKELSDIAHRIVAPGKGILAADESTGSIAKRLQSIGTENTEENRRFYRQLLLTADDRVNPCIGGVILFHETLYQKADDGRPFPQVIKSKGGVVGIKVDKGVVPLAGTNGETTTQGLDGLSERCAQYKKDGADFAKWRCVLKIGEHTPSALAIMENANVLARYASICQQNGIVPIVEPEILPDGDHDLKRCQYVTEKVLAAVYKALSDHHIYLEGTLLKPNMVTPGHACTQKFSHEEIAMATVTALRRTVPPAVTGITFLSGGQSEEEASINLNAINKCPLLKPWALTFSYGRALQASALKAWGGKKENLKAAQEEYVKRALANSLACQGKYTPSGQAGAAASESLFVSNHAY

[4] = target: Glyceraldehyde-3-phosphate dehydrogenase (encoded by GAPDH) (UniProt P04406)
Sequence of Glyceraldehyde-3-phosphate dehydrogenase (encoded by GAPDH) (P04406 2-335): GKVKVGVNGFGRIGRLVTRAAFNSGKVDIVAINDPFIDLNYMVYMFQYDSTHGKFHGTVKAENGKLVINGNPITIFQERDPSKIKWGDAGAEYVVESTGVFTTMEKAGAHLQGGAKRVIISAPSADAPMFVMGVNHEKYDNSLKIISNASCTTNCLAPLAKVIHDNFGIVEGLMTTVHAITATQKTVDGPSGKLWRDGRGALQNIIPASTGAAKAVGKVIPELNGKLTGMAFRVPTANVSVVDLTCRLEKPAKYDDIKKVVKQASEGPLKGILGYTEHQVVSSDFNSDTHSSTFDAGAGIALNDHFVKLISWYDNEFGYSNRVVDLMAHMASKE

Sirtuin 2 (SIRT2), human
acetylation level (IP with specific antibody, western blot with anti-acetyl-Lys, and the reverse) [1]: forced expression of SIRT2 in hESCs prominently deacetylated all four enzymes tested (aldolase, PGK1, enolase, and GAPDH) | acetylation level after SIRT2 knockdown in hDFs (IP, western blot with anti-acetyl-Lys) [1]: Acetylation levels of aldolase, enolase, PGK1 and GAPDH were substantially increased in SIRT2 KD fibroblasts | acetylation level (IP with specific antibody, western blot with anti-acetyl-Lys, and the reverse) [2]: forced expression of SIRT2 in hESCs prominently deacetylated all four enzymes tested (aldolase, PGK1, enolase, and GAPDH) | acetylation level after SIRT2 knockdown in hDFs (IP, western blot with anti-acetyl-Lys) [2]: Acetylation levels of aldolase, enolase, PGK1 and GAPDH were substantially increased in SIRT2 KD fibroblasts | acetylation level (IP with specific antibody, western blot with anti-acetyl-Lys, and the reverse) [3]: forced expression of SIRT2 in hESCs prominently deacetylated all four enzymes tested (aldolase, PGK1, enolase, and GAPDH) | acetylation level after SIRT2 knockdown in hDFs (IP, western blot with anti-acetyl-Lys) [3]: Acetylation levels of aldolase, enolase, PGK1 and GAPDH were substantially increased in SIRT2 KD fibroblasts | acetylation level (IP with specific antibody, western blot with anti-acetyl-Lys, and the reverse) [4]: forced expression of SIRT2 in hESCs prominently deacetylated all four enzymes tested (aldolase, PGK1, enolase, and GAPDH) | acetylation level after SIRT2 knockdown in hDFs (IP, western blot with anti-acetyl-Lys) [4]: Acetylation levels of aldolase, enolase, PGK1 and GAPDH were substantially increased in SIRT2 KD fibroblasts
